Test results from paper PMC6555819, “Comprehensive study of nuclear receptor DNA binding provides a revised framework for understanding receptor specificity”.

B1: NRC3_wobSeed82_DR3_G22C_o1 (dsDNA)
DNA 1: GCATCGAAAGGTCGACGAGGTCAGTATACACCGTTTGCGATTGACAGCGTAGAATGAAGG
DNA 2: CCTTCATTCTACGCTGTCAATCGCAAACGGTGTATACTGACCTCGTCGACCTTTCGATGC
B2: NRC3_wobSeed72_DR2_A6C_o1 (dsDNA)
DNA 1: GCTCGCGTAGGTTACGGGGGCATTCAGGGATGAAGAGCGATTGACAGCGTAGAATGAAGG
DNA 2: CCTTCATTCTACGCTGTCAATCGCTCTTCATCCCTGAATGCCCCCGTAACCTACGCGAGC
B3: NRC3_wobSeed95_DR3_G12T_o1 (dsDNA)
DNA 1: GCAGAACGAGGTCAATGAGTTGATAGCACGGGTGGCGCGATTGACAGCGTAGAATGAAGG
DNA 2: CCTTCATTCTACGCTGTCAATCGCGCCACCCGTGCTATCAACTCATTGACCTCGTTCTGC
B4: NRC3_wobSeed95_DR3_A9G_o1 (dsDNA)
DNA 1: GCAGAACGGGGGCAATGAGTTGATAGCACGGGTGGCGCGATTGACAGCGTAGAATGAAGG
DNA 2: CCTTCATTCTACGCTGTCAATCGCGCCACCCGTGCTATCAACTCATTGCCCCCGTTCTGC
B5: NRC3_wobSeed95_DR3_G22T_o1 (dsDNA)
DNA 1: GCAGAACGAGGGCAATGAGTTTATAGCACGGGTGGCGCGATTGACAGCGTAGAATGAAGG
DNA 2: CCTTCATTCTACGCTGTCAATCGCGCCACCCGTGCTATAAACTCATTGCCCTCGTTCTGC
B6: NRC3_wobSeed92_DR3_A20T_o1 (dsDNA)
DNA 1: GCAGAATGAGGTTATTAAGTTCAGGGAATTGCGGTCGCGATTGACAGCGTAGAATGAAGG
DNA 2: CCTTCATTCTACGCTGTCAATCGCGACCGCAATTCCCTGAACTTAATAACCTCATTCTGC
B7: NRC3_wobSeed92_DR3_A20G_o1 (dsDNA)
DNA 1: GCAGAATGAGGTTATTAAGGTCAGGGAATTGCGGTCGCGATTGACAGCGTAGAATGAAGG
DNA 2: CCTTCATTCTACGCTGTCAATCGCGACCGCAATTCCCTGACCTTAATAACCTCATTCTGC
B8: NRC3_wobSeed124_DR5_C17T_o1 (dsDNA)
DNA 1: GCCCTACTGGGCCATTTAGAGGTCATTGATCATATGGCGATTGACAGCGTAGAATGAAGG
DNA 2: CCTTCATTCTACGCTGTCAATCGCCATATGATCAATGACCTCTAAATGGCCCAGTAGGGC
B9: NRC3_wobSeed124_DR5_A29G_o1 (dsDNA)
DNA 1: GCCCTACTGGGCCATTCAGAGGTCATTGGTCATATGGCGATTGACAGCGTAGAATGAAGG
DNA 2: CCTTCATTCTACGCTGTCAATCGCCATATGACCAATGACCTCTGAATGGCCCAGTAGGGC
B10: NRC3_wobSeed66_DR2_o1 (dsDNA)
DNA 1: GCAATACAGGGTCACTAGGCCAGAGTAGGTACGAATGCGATTGACAGCGTAGAATGAAGG
DNA 2: CCTTCATTCTACGCTGTCAATCGCATTCGTACCTACTCTGGCCTAGTGACCCTGTATTGC
B11: NRC3_wobSeed66_DR2_G9A_o1 (dsDNA)
DNA 1: GCAATACAAGGTCACTAGGCCAGAGTAGGTACGAATGCGATTGACAGCGTAGAATGAAGG
DNA 2: CCTTCATTCTACGCTGTCAATCGCATTCGTACCTACTCTGGCCTAGTGACCTTGTATTGC
B12: NRC3_wobSeed61_DR2_T24G_o1 (dsDNA)
DNA 1: GCCGTCCAAGGTCAGCAGGTCAGGGAAAGCGACGTGGCGATTGACAGCGTAGAATGAAGG
DNA 2: CCTTCATTCTACGCTGTCAATCGCCACGTCGCTTTCCCTGACCTGCTGACCTTGGACGGC
B13: NRC3_wobSeed61_DR2_G25A_o1 (dsDNA)
DNA 1: GCCGTCCAAGGTCAGCAGGTCAGTAAAAGCGACGTGGCGATTGACAGCGTAGAATGAAGG
DNA 2: CCTTCATTCTACGCTGTCAATCGCCACGTCGCTTTTACTGACCTGCTGACCTTGGACGGC
B14: NRC3_wobSeed61_DR2_o1 (dsDNA)
DNA 1: GCCGTCCAAGGTCAGCAGGTCAGTGAAAGCGACGTGGCGATTGACAGCGTAGAATGAAGG
DNA 2: CCTTCATTCTACGCTGTCAATCGCCACGTCGCTTTCACTGACCTGCTGACCTTGGACGGC
B15: NRC3_wobSeed81_DR3_A13C_o1 (dsDNA)
DNA 1: GCATCTCTAGGTCACCAAGTTCAGTGAATGCCGAACGCGATTGACAGCGTAGAATGAAGG
DNA 2: CCTTCATTCTACGCTGTCAATCGCGTTCGGCATTCACTGAACTTGGTGACCTAGAGATGC
B16: NRC3_wobSeed94_DR3_G23A_o1 (dsDNA)
DNA 1: GCCTACCAAGGTGAACAAGGTCATTGATTACTATTCGCGATTGACAGCGTAGAATGAAGG
DNA 2: CCTTCATTCTACGCTGTCAATCGCGAATAGTAATCAATGACCTTGTTCACCTTGGTAGGC
B17: NRC3_wobSeed94_DR3_G13T_o1 (dsDNA)
DNA 1: GCCTACCAAGGTTAACAAGGTCGTTGATTACTATTCGCGATTGACAGCGTAGAATGAAGG
DNA 2: CCTTCATTCTACGCTGTCAATCGCGAATAGTAATCAACGACCTTGTTAACCTTGGTAGGC
B18: NRC3_wobSeed94_DR3_A17G_o1 (dsDNA)
DNA 1: GCCTACCAAGGTGAACGAGGTCGTTGATTACTATTCGCGATTGACAGCGTAGAATGAAGG
DNA 2: CCTTCATTCTACGCTGTCAATCGCGAATAGTAATCAACGACCTCGTTCACCTTGGTAGGC
B19: NRC3_wobSeed113_DR4_A14C_o1 (dsDNA)
DNA 1: GCATATGTAGGTTCGCTGGGGTCATTCAGACTAGGCGCGATTGACAGCGTAGAATGAAGG
DNA 2: CCTTCATTCTACGCTGTCAATCGCGCCTAGTCTGAATGACCCCAGCGAACCTACATATGC
B20: NRC3_wobSeed41_DR1_C24G_o1 (dsDNA)
DNA 1: GCATATGTAGGTTAAGGGTCATTGAGGTTGGTTCGCGCGATTGACAGCGTAGAATGAAGG
DNA 2: CCTTCATTCTACGCTGTCAATCGCGCGAACCAACCTCAATGACCCTTAACCTACATATGC
B21: NRC3_wobSeed50_DR2_G7A_o1 (dsDNA)
DNA 1: GCCCTAATTGGTCAGGAGGTCACACACCGGATATGAGCGATTGACAGCGTAGAATGAAGG
DNA 2: CCTTCATTCTACGCTGTCAATCGCTCATATCCGGTGTGTGACCTCCTGACCAATTAGGGC
B22: NRC3_wobSeed65_DR2_C25G_o1 (dsDNA)
DNA 1: GCATATGTAGGTTATCGGGTCATTGAGTTTGCGCATGCGATTGACAGCGTAGAATGAAGG
DNA 2: CCTTCATTCTACGCTGTCAATCGCATGCGCAAACTCAATGACCCGATAACCTACATATGC
B23: NRC3_wobSeed65_DR2_C16G_o1 (dsDNA)
DNA 1: GCATATGTAGGTTATGGGGTCATTCAGTTTGCGCATGCGATTGACAGCGTAGAATGAAGG
DNA 2: CCTTCATTCTACGCTGTCAATCGCATGCGCAAACTGAATGACCCCATAACCTACATATGC
B24: NRC3_wobSeed119_DR4_C7A_o1 (dsDNA)
DNA 1: GCGGAAAGAGGGCATTCGAGTTGATAGCATGGCGATGCGATTGACAGCGTAGAATGAAGG
DNA 2: CCTTCATTCTACGCTGTCAATCGCATCGCCATGCTATCAACTCGAATGCCCTCTTTCCGC
B25: NRC3_wobSeed77_DR3_G20T_o1 (dsDNA)
DNA 1: GCACTTACGGGTCAACGAGTTTATAGCACGCGTATAGCGATTGACAGCGTAGAATGAAGG
DNA 2: CCTTCATTCTACGCTGTCAATCGCTATACGCGTGCTATAAACTCGTTGACCCGTAAGTGC
B26: NRC3_wobSeed74_DR3_T9G_o1 (dsDNA)
DNA 1: GCTCTAGTGGGTCACGGAGGTCACACACGACGGGTAGCGATTGACAGCGTAGAATGAAGG
DNA 2: CCTTCATTCTACGCTGTCAATCGCTACCCGTCGTGTGTGACCTCCGTGACCCACTAGAGC
B27: NRC3_wobSeed74_DR3_G16C_o1 (dsDNA)
DNA 1: GCTCTAGTTGGTCACCGAGGTCACACACGACGGGTAGCGATTGACAGCGTAGAATGAAGG
DNA 2: CCTTCATTCTACGCTGTCAATCGCTACCCGTCGTGTGTGACCTCGGTGACCAACTAGAGC
B28: NRC3_wobSeed74_DR3_G20T_o1 (dsDNA)
DNA 1: GCTCTAGTTGGTCACGGAGTTCACACACGACGGGTAGCGATTGACAGCGTAGAATGAAGG
DNA 2: CCTTCATTCTACGCTGTCAATCGCTACCCGTCGTGTGTGAACTCCGTGACCAACTAGAGC
B29: NRC3_wobSeed76_DR3_C12T_o1 (dsDNA)
DNA 1: GCCCTACTGGGTCAAAAAGGTCATTGATGCCGATAAGCGATTGACAGCGTAGAATGAAGG
DNA 2: CCTTCATTCTACGCTGTCAATCGCTTATCGGCATCAATGACCTTTTTGACCCAGTAGGGC
B30: NRC3_wobSeed73_DR3_G20T_o1 (dsDNA)
DNA 1: GCCAAACTAGGTCACAGAGTTCAAAGTCCGTGCGTAGCGATTGACAGCGTAGAATGAAGG
DNA 2: CCTTCATTCTACGCTGTCAATCGCTACGCACGGACTTTGAACTCTGTGACCTAGTTTGGC
B31: NRC3_wobSeed22_DR0_T25C_o1 (dsDNA)
DNA 1: GCTTACCAAGGTGAAGGTCGTTGACCCCTCTGTAGAGCGATTGACAGCGTAGAATGAAGG
DNA 2: CCTTCATTCTACGCTGTCAATCGCTCTACAGAGGGGTCAACGACCTTCACCTTGGTAAGC
B32: NRC3_wobSeed28_DR1_T26G_o1 (dsDNA)
DNA 1: GCCCTACTGGGCCAAAGGTCATTGAGTCCAATGCTCGCGATTGACAGCGTAGAATGAAGG
DNA 2: CCTTCATTCTACGCTGTCAATCGCGAGCATTGGACTCAATGACCTTTGGCCCAGTAGGGC
B33: NRC3_wobSeed101_DR4_o1 (dsDNA)
DNA 1: GCCCTTACGGGTCACTCCAGGTTATAGCATCGGAGTGCGATTGACAGCGTAGAATGAAGG
DNA 2: CCTTCATTCTACGCTGTCAATCGCACTCCGATGCTATAACCTGGAGTGACCCGTAAGGGC

What follows are binders tested against VDR:RXRa (Homo sapiens, UniProt P11473;P19793 full;full) (assay: no ligand; PBM; 270 nM : 90 nM RXRa; PBS pH 7.4, 2% milk, 0.02% Triton X-100, 1 mM DTT, BSA, 0.4 mg/ml salmon testes DNA). Conditions: tags: His kept;His cleaved; copies: 1;1; label: surface-attached array probe.
Chain of VDR:RXRa (P11473 whole entry, chain 1 of 2): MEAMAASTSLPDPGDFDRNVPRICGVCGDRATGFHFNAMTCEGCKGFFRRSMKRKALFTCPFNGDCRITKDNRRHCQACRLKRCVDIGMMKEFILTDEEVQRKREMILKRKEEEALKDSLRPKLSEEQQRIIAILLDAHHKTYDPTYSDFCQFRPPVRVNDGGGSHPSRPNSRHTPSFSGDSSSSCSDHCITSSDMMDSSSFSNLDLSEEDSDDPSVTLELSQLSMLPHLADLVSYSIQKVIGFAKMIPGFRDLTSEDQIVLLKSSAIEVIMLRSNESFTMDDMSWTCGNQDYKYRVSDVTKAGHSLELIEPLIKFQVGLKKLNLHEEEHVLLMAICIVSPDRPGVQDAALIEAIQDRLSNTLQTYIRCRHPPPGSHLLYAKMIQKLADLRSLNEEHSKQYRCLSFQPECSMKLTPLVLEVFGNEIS
Chain of VDR:RXRa (P19793 whole entry, chain 2 of 2): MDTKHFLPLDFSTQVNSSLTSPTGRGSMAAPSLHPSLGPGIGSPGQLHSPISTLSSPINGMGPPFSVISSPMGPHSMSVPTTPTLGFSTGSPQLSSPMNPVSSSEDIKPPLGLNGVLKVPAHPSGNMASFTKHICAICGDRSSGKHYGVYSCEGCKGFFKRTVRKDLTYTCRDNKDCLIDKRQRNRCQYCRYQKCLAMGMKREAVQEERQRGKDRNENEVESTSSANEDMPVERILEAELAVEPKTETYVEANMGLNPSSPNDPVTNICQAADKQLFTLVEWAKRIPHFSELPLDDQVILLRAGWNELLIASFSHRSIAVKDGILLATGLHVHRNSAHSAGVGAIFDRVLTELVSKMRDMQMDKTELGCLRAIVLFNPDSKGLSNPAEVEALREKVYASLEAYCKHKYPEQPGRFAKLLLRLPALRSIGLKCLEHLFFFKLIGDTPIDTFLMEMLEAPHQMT
Summary of the method: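 Ligand-free nuclear receptor dimers were bound for 1 h to custom Agilent 4×180K protein-binding microarrays. Detection used antibodies against each partner (one per run). Binding z-scores rest on regression-normalized fluorescence, with random background probes as the reference.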

Point of comparison: B23, binding signal 6.73 PBM z-score against 500 random probes. Against it:
- B1 — higher, 7.66 PBM z-score against 500 random probes
- B2 — lower, 3.92 PBM z-score against 500 random probes
- B3 — higher, 7.63 PBM z-score against 500 random probes
- B4 — lower, 6.59 PBM z-score against 500 random probes
- B5 — the same, 6.73 PBM z-score against 500 random probes
- B6 — higher, 6.9 PBM z-score against 500 random probes
- B7 — higher, 6.76 PBM z-score against 500 random probes
- B8 — lower, 3.9 PBM z-score against 500 random probes
- B9 — lower, 3.87 PBM z-score against 500 random probes
- B10 — lower, 4.15 PBM z-score against 500 random probes
- B11 — lower, 4.1 PBM z-score against 500 random probes
- B12 — lower, 4.03 PBM z-score against 500 random probes
- B13 — lower, 4 PBM z-score against 500 random probes
- B14 — lower, 3.97 PBM z-score against 500 random probes
- B15 — higher, 7.59 PBM z-score against 500 random probes
- B16 — higher, 7.03 PBM z-score against 500 random probes
- B17 — higher, 6.93 PBM z-score against 500 random probes
- B18 — lower, 6.62 PBM z-score against 500 random probes
- B19 — higher, 7.03 PBM z-score against 500 random probes
- B20 — lower, 6.5 PBM z-score against 500 random probes
- B21 — lower, 3.96 PBM z-score against 500 random probes
- B22 — higher, 6.9 PBM z-score against 500 random probes
- B24 — lower, 4.08 PBM z-score against 500 random probes
- B25 — higher, 8.27 PBM z-score against 500 random probes
- B26 — higher, 7.63 PBM z-score against 500 random probes
- B27 — lower, 6.63 PBM z-score against 500 random probes
- B28 — lower, 6.57 PBM z-score against 500 random probes
- B29 — higher, 6.93 PBM z-score against 500 random probes
- B30 — higher, 8.45 PBM z-score against 500 random probes
- B31 — lower, 4.04 PBM z-score against 500 random probes
- B32 — higher, 7.34 PBM z-score against 500 random probes
- B33 — lower, 4.06 PBM z-score against 500 random probes
